Assay results published in patent US12356911B2, “Group of UDP-glycosyltransferase for catalyzing carbohydrate chain elongation and application thereof” (GSYNBIOT (SHANGHAI) CO., LTD, priority 2017, dated 2025).

Columns and labels:
Type in all cases: biochemical
[1] = In vitro transglycosylation at C-3, Rh2 as glycosyl acceptor, UDP-glucose as donor; details: crude enzyme (E. coli lysate supernatant); TLC, FIG. 13, FIG. 15
Text: (§1) Cell lysate of recombinant E. coli with empty vector pET28a was used as a control.

[2] = In vitro transglycosylation at C-20, CK as glycosyl acceptor, UDP-glucose as donor; details: crude enzyme (E. coli lysate supernatant); TLC/HPLC, FIG. 2, 3, 12, 16
Text: as §1
As shown in FIG. 16: Protopanaxadiol Ginsenoside CK is used as a glycosyl acceptor, and UDP-glucose is used as a glycosyl donor.

[3] = In vitro transglycosylation at C-20, Rd as glycosyl acceptor, UDP-glucose as donor; details: crude enzyme (E. coli lysate supernatant); TLC/HPLC, FIG. 2, 3, 11
Text: as §1

| Molecule | product formation from Rh2 and UDP-glucose (Rg3) [1] | product formation from CK and UDP-glucose (Gypenoside LXXV) [2] | product formation from Rd and UDP-glucose (Rb1) [3] |
| --- | --- | --- | --- |
| GT29-46: Ginseng UDP-glycosyltransferase, 442 amino acids, SEQ ID NO.: 100 (protein, primer) MDNQEGRISIALLPFLAHGHISPFFELAKQLAKRNCNVFLCSTPINLSSIKNKDSSASIKLVELHLPSSPDLPPHYHTTNGLPSHLMVPLINAFETAGPTFSEILKTLNPDLLIYDFNPSWAPEIASSHNIPAVYFLTTAAASSSIGLHAFKNPGEKYPFPDFYDNSNNTPEPPSADNMKLLHDFIACFERSCDIILIKSFIELEGKYIDLLSTLSDKTLVPVGPLVQDPMGHNEDPKTEQIINWLDKRAESTVVFVYFGSEYFLSNEELEEVAIGLEISMVNFIWAVRLIEGEKKGVLPEGFVQRVGDRGLVVEGWAPQARILGHSSTGGFVSHCGWSSIAESMKFGVPVIAMARHLDQPLNGKLAAEVGVGMEVVRDENGKYKREGIAEVIRKVVVEKSGEVMRRKARELSEKMKEKGEEEIDRAVEELVQICKKKKDAQ | can all catalyze the extension of a glucosyl at the C-3 glycosyl of Rh2 to generate Rg3 | can catalyze the C-20 glycosyl of CK to extend a glucosyl to produce Gypenoside LXXV | – |
| PNUGT29-14: Panax notoginseng glycosyltransferase, 447 amino acids, SEQ ID NO: 57 (protein, Panax notoginseng) MYIEKGRISIVMLPFLAHGHISPFFELAKHLSKRNCNIFLCSTPINLSSIKNRVSDKDSSASIKLVELHLPSSPDLPPQYHTTNGLPSHLMVPLKNAFETVGPTFSEILKTLDPDLLIYDFNPSWAPEIALSHNIPAVYFLTSAAATSSVALRALKNPGEKYPFPDFYDNSNITPEPPSADKMKLFHDFVACFKRSCDIILIKSFRELEGKYIDLLSTLSKKTLVPVGPLVQDPLGHDEDPKTGHLINWLDKRAESTVVFVCFGSEYFPSNEELEEVAIGLEISMVNFILAVRFLEGEKKGVLPEGFVQRVGDRGLVVEGWAPQARILGHSSTGGFVSHCGWSSIMESVKFGVPVIAMARHLDQPLNAKLAAEVGVGMEVVRDENGKYKREAIAEVIRKVVMEKNGEVIRRKARELSEKMKETGEQEIGRAVEELVQICKMKKDAQY | can catalyze the extension of a glucosyl at the C-3 glycosyl of Rh2 to generate Rg3 | can catalyze the extension of a glucosyl at the C-20 glycosyl to generate Gypenoside LXXV | can catalyze the extension of a glucosyl at the C-20 glycosyl of Rd to generate Rb1 |
| PNUGT29-1: Panax notoginseng glycosyltransferase, 447 amino acids, SEQ ID NO: 39 (protein, Panax notoginseng) MDIEKGRISIVMLPFLAHGHISPFFELAKHLSKRNCNIFLCSTPINLSSIKSRVSDKDSSASIKLVELHLPSSPDLPPQYHTTNGLPSHLMVPLKNAFETVGPTFSEILKTLDPDLLIYDFNPSWAPEIALSHNIPAVYFLTSAAATSSVALRALKNPGEKYPFPDFYDNSNITPEPPSADKMKLFHDFVACFKRSCDIILIKSFRELEGKYIDLLSTLSKKTLVPVGPLVQDPLGHDEDPKTGHLINWLDKRAESTVVFVCFGSEYFPSNEELEEVAIGLEISMVNFILAVRFLEGEKKGVLPEGFVQRVGDRGLVVEGWAPQARILGHSSTGGFVSHCGWSSIMESVKFGVPVIAMARHLDQPLNAKLAAEVGVGMEVVRDENGKYTREAIAEVIRKVVMEKNGEVIRRKARELSDKMKEKGEQEIGRAVEELVQICKMKKDAQY | can catalyze the extension of a glucosyl at the C-3 glycosyl of Rh2 to generate Rg3 | can catalyze the extension of a glucosyl at the C-20 glycosyl to generate Gypenoside LXXV | can catalyze the extension of a glucosyl at the C-20 glycosyl of Rd to generate Rb1 |
| PNUGT29-3: Panax notoginseng glycosyltransferase, 447 amino acids, SEQ ID NO: 43 (protein) MDIEKGRISIVMLPFLAHGHISPFFELAKHLSKRNCNIFLCSTPINLSSIKNRVSDKDSSASIKLVELHLPSSPDLPPQYHTTNGLPSHLMVPLKNAFETVGPTFSEILKTLDPDLLIYDFNPSWAPEIALSHNIPAVYFLTSAAATSSVALRALKNPGEKYPFPDFYDNSNITPEPPSADKMKLFHDFVACFKRSCDIILIKSFRELEGKYIDLLSTLSKKTLVPVGPLVQDPLGHDEDPKTGHLINWLDKRAESTVVFVCFGSEYFPSNEELEEVAIGLEISMVNFILAVRFLEGEKKGVLPEGFVQRVGDRGLVVEGWAPQARILGHSSTGGFVSHCGWSSIMESVKFGVPVIAMARHLDQPLNAKLAAEVGVGMEVVRDENGKYKREAIAEVIRKVVMEKNGEVIRRKARELSEKMKETGEQEIGRAVEELVQICKMKKDAQY | can catalyze the extension of a glucosyl at the C-3 glycosyl of Rh2 to generate Rg3 | can catalyze the extension of a glucosyl at the C-20 glycosyl to generate Gypenoside LXXV | can catalyze the extension of a glucosyl at the C-20 glycosyl of Rd to generate Rb1 |
| PNUGT29-15: Panax notoginseng glycosyltransferase, 447 amino acids, SEQ ID NO: 59 (protein, Panax notoginseng) MDIEKGRISIVMLPFLAHGHISPFFELAKHLSKRNCNIFLCSTPINLSSIKNRVSDKDSSASIKLVELHLPSSPDLPPQYHTTNGLPSHLMVPLKNAFETVGPTFSEILKTLDPDLLIYDFNPSWAPEIALSHNIPAVYFLTSAAATSSVALRALKNPGEKYPFPDFYDNSNITPEPPSADKMKLFHDFVACFKRSCDIILIKSFRELEGKYIDLLSTLSKKTLVPVGPLVQDHLGHDEDPKTGHLINWLDKRAESTVVFVCFGSEYFPSNEELEEVAIGLEISMVNFILAVRFLEGEKKGVLPEGFVQRVGDRGLVVEGWAPQARILGHSSTGGFVSHCGWSSIMESVKFGVPVIAMARHLDQPLNAKLAAEVGVGMEVVRDENGKYTREAIAEVIRKVVMEKNGEVIRRKARELSDKMKEKGEQEIGRAVEELVQICKMKKDAQY | can catalyze the extension of a glucosyl at the C-3 glycosyl of Rh2 to generate Rg3 | can catalyze the extension of a glucosyl at the C-20 glycosyl to generate Gypenoside LXXV | can catalyze the extension of a glucosyl at the C-20 glycosyl of Rd to generate Rb1 |
| GT29-45: Ginseng UDP-glycosyltransferase, 448 amino acids, SEQ ID NO.: 98 (protein, Panax ginseng) MDIEKGRISIVMLPFLAHGHISPFFELAKHLSKRNCNIFLCSTPINLSSIKNRVSDKDSSASIKLVELHLPSSPDLPPHYHTTNGLPSHLMVPLRNAFETAAPTFSEILKTLNPDLLIYDFNPSWAPEIASSHNIPAVYFLTSAAATSSMGLHAFKNSGEKYPFPDFYDNSNITPEPPSADKMKLFHDFVACFKRSCDIILIKSFRELEGKYIDFLSTLSKKTLVPVGPLVQDPMGHDEDPKTGHLINWLDKRAESTVVFVCFGSEYFPSNEELEELAIGLEISMVSFILAVRFPEGEKKGILPEGFVQRVGDRGLVVEGWAPQARILGHSSTGGFVSHCGWSSIMESVKFGVPVIAMARHLDQPLNAKLAAEVGVGMEVMRDENGKYKREAIAEVIRKVVMEKNGEVMRRKARELSEKMKVKGEQEIGRAVEELVQICKKKKQHAQY | can all catalyze the extension of a glucosyl at the C-3 glycosyl of Rh2 to generate Rg3 | can catalyze the C-20 glycosyl of CK to extend a glucosyl to produce Gypenoside LXXV | – |
| PNUGT29-2: Panax notoginseng glycosyltransferase, 442 amino acids, SEQ ID NO: 41 (protein, Panax notoginseng) MDNQKGRISIALLPFLAHGHISPFFELAKQLAKRNCNVFLCSTPINLSSIKNKDSSASVKLVELHLPSSPDLPPHYHTTNGLPSHLMVPLRNAFETVGPTFSEILKTLNPDLLIYDFNPSWAPEIASSHNIPAVYFLTTAAASSSIGLHAFKNPGEKYPFPDFYDNSNITPEPPSADNMKLLHDFIACFERSCDIILIKSFRELEGKYIDLLSTLSDKTLVPVGPLVQDPMGHNEDPKTEQIINWLDKRAESTVVFVCFGSEYFLSNEELEEVAIGLEISMVNFIWAVRLIEGEKKGVLPEGFVQRVGDRGLVVEGWAPQARILGHSSTGGFVSHCGWSSIAESMRFGVPVIAMARHLDQPLNAKLAAEVGVGMEVVRDDNGKYKREGIAEVIRKVVVEKSGEVIRRKARELSEKMKEKGEQEIDRAVEELVQICKKKKDAQ | can catalyze the extension of a glucosyl at the C-3 glycosyl of Rh2 to generate Rg3 | can catalyze the extension of a glucosyl at the C-20 glycosyl to generate Gypenoside LXXV | can catalyze the extension of a glucosyl at the C-20 glycosyl of Rd to generate Rb1 |
